Measurements reported in FireProtDB (doi:10.1021/bi035651x).
Several values for one entry are separate records, joined by “and”; a condition that tells them apart may be missing. Equal values may be shown once.

B1: Adenosine deaminase, P03958 (parent)
chain: MAQTPAFNKPKVELHVHLDGAIKPETILYFGKKRGIALPADTVEELRNIIGMDKPLSLPGFLAKFDYYMPVIAGCREAIKRIAYEFVEMKAKEGVVYVEVRYSPHLLANSKVDPMPWNQTEGDVTPDDVVDLVNQGLQEGEQAFGIKVRSILCCMRHQPSWSLEVLELCKKYNQKTVVAMDLAGDETIEGSSLFPGHVEAYEGAVKNGIHRTVHAGEVGSPEVVREAVDILKTERVGHGYHTIEDEALYNRLLKENMHFEVCPWSSYLTGAWDPKTTHAVVRFKNDKANYSLNTDDPLIFKSTLDTDYQMTKKDMGFTEEEFKRLNINAAKSSFLPEEEKKELLERLYREYQ

Variants of: B1
Conditions: Mus musculus; pH 7.4; 20 °C; Urea; NMR; Tris-HCl 20 mM; structure 2ADA; whole UniProt chain shown

Row | Variant | ddG of mutation (higher = less stable) | denaturant m value | denaturant midpoint (higher = more stable) | unfolding free energy
1 | MAQTPAFNKPKVELHVHLDGAIKPETILYFGKKRGIALPADTVEELRNIIGMDKPLSLPGFLAKFDYYMPVIAGCREAIKRIAYEFVEMKAKEGVVYVEVRYSPHLLANSKVDPMPFNQTEGDVTPDDVVDLVNQGLQEGEQAFGIKVRSILCCMRHQPSWSLEVLELCKKYNQKTVVAMDLAGDETIEGSSLFPGHVEAYEGAVKNGIHRTVHAGEVGSPEVVREAVDILKTERVGHGYHTIEDEALYNRLLKENMHFEVCPWSSYLTGAWDPKTTHAVVRFKNDKANYSLNTDDPLIFKSTLDTDYQMTKKDMGFTEEEFKRLNINAAKSSFLPEEEKKELLERLYREYQ [W117F] | -2.96 kcal/mol and -6.52 kcal/mol | 1.31 kcal/mol/M and 1.96 kcal/mol/M | 5.65 M and 5.59 M | 7.4 kcal/mol and 11 kcal/mol
2 | MAQTPAFNKPKVELHVHLDGAIKPETILYFGKKRGIALPADTVEELRNIIGMDKPLSLPGFLAKFDYYMPVIAGCREAIKRIAYEFVEMKAKEGVVYVEVRYSPHLLANSKVDPMPWNQTEGDVTPDDVVDLVNQGLQEGEQAFGIKVRSILCCMRHQPSFSLEVLELCKKYNQKTVVAMDLAGDETIEGSSLFPGHVEAYEGAVKNGIHRTVHAGEVGSPEVVREAVDILKTERVGHGYHTIEDEALYNRLLKENMHFEVCPWSSYLTGAWDPKTTHAVVRFKNDKANYSLNTDDPLIFKSTLDTDYQMTKKDMGFTEEEFKRLNINAAKSSFLPEEEKKELLERLYREYQ [W161F] | -8.7 kcal/mol and -5.98 kcal/mol | 2.48 kcal/mol/M and 1.87 kcal/mol/M | 5.3 M and 5.57 M | 13.1 kcal/mol and 10.4 kcal/mol
3 | MAQTPAFNKPKVELHVHLDGAIKPETILYFGKKRGIALPADTVEELRNIIGMDKPLSLPGFLAKFDYYMPVIAGCREAIKRIAYEFVEMKAKEGVVYVEVRYSPHLLANSKVDPMPWNQTEGDVTPDDVVDLVNQGLQEGEQAFGIKVRSILCCMRHQPSWSLEVLELCKKYNQKTVVAMDLAGDETIEGSSLFPGHVEAYEGAVKNGIHRTVHAGEVGSPEVVREAVDILKTERVGHGYHTIEDEALYNRLLKENMHFEVCPWSSYLTGAFDPKTTHAVVRFKNDKANYSLNTDDPLIFKSTLDTDYQMTKKDMGFTEEEFKRLNINAAKSSFLPEEEKKELLERLYREYQ [W272F] | – | 1.05 kcal/mol/M and 2.25 kcal/mol/M | 5.42 M and 5.58 M | 5.69 kcal/mol and 12.6 kcal/mol
